The source of these data is patent US20210139559A1 (XL PROTEIN, published 2021).

The target in experiment [1] is T1, human VEGF165 ligand (human, UniProt P15692-4 27-191). Put plainly: cell-based or functional assay.
The target of experiment [2] is T1, human VEGF165 ligand. Put plainly: serial dilution mixed with 50 pM human VEGF165 in solution, unbound VEGF165 measured by ELISA. The protocol: The amount of unbound VEGF₁₆₅ was then measured by a human VEGF-specific ELISA (Human VEGF DuoSet ELISA kit, R&D Systems, CAT. No. DY293B-05).
Unbound human VEGF₁₆₅ or PDGF-BB was calculated using 4 parameters curve with the absorbance value. And the IC₅₀ of the tested fusion proteins and the reference was calculated using 4 parameters curve with unbound human VEGF₁₆₅ or PDGF-BB.

T1 sequence (P15692 other isoform, or with tags, fused parts or gaps limits assumed): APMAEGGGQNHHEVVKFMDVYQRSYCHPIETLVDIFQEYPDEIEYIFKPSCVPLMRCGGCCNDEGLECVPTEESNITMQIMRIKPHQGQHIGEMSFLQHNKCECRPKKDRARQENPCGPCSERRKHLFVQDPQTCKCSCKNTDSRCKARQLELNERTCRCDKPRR

B1: VEGFR1D2/R2D3-(GGGGS)3-PAS(200)-(GGGGS)3-PDGFRαD123 (receptor)
chain: SDTGRPFVEMYSEIPEIIHMTEGRELVIPCRVTSPNITVTLKKFPLDTLIPDGKRIIWDSRKGFIISNATYKEIGLLTCEATVNGHLYKTNYLTHRQTNTIIDVVLSPSHGIELSVGEKLVLNCTARTELNVGIDFNWEYPSSKHQHKKLVNRDLKTQSGSEMKKFLSTLTIDGVTRSDQGLYTCAASSGLMTKKNSTFVRVHEKGGGGSGGGGSGGGGSASPAAPAPASPAAPAPSAPAASPAAPAPASPAAPAPSAPAASPAAPAPASPAAPAPSAPAASPAAPAPASPAAPAPSAPAASPAAPAPASPAAPAPSAPAASPAAPAPASPAAPAPSAPAASPAAPAPASPAAPAPSAPAASPAAPAPASPAAPAPSAPAASPAAPAPASPAAPAPSAPAASPAAPAPASPAAPAPSAPAGGGGSGGGGSGGGGSQLSLPSILPNENEKVVQLNSSFSLRCFGESEVSWQYPMSEEESSDVEIRNEENNSGLFVTVLEVSSASAAHTGLYTCYYNHTQTEENELEGRHIYIYVPDPDVAFVPLGMTDYLVIVEDDDSAIIPCRTTDPETPVTLHNSEGVVPASYDSRQGFNGTFTVGPYICEATVKGKKFQTIPFNVYALKATSELDLEMEALKTVYKSGETIVVTCAVFNNEVVDLQWTYPGEVKGKGITMLEEIKVPSIKLVYTLTVPEATVKDSGDYECAARQATREVKEMKKVTISVHEKGHHHHHH
notes: also called EPS1107P
As to B1, the “Inhibition of HUVEC cells proliferation, IC50” value (“Inhibition” below) in the experiment with human VEGF165 ligand [1] came to 53.1 nM. Further, the IC50 with human VEGF165 ligand [2] amounted to 0.304 nM.

B2: VEGFR1D2/R2D3-PAS(200)-PDGFRαD123 (receptor)
chain: SDTGRPFVEMYSEIPEIIHMTEGRELVIPCRVTSPNITVTLKKFPLDTLIPDGKRIIWDSRKGFIISNATYKEIGLLTCEATVNGHLYKTNYLTHRQTNTIIDVVLSPSHGIELSVGEKLVLNCTARTELNVGIDFNWEYPSSKHQHKKLVNRDLKTQSGSEMKKFLSTLTIDGVTRSDQGLYTCAASSGLMTKKNSTFVRVHEKASPAAPAPASPAAPAPSAPAASPAAPAPASPAAPAPSAPAASPAAPAPASPAAPAPSAPAASPAAPAPASPAAPAPSAPAASPAAPAPASPAAPAPSAPAASPAAPAPASPAAPAPSAPAASPAAPAPASPAAPAPSAPAASPAAPAPASPAAPAPSAPAASPAAPAPASPAAPAPSAPAASPAAPAPASPAAPAPSAPAQLSLPSILPNENEKVVQLNSSFSLRCFGESEVSWQYPMSEEESSDVEIRNEENNSGLFVTVLEVSSASAAHTGLYTCYYNHTQTEENELEGRHIYIYVPDPDVAFVPLGMTDYLVIVEDDDSAIIPCRTTDPETPVTLHNSEGVVPASYDSRQGFNGTFTVGPYICEATVKGKKFQTIPFNVYALKATSELDLEMEALKTVYKSGETIVVTCAVFNNEVVDLQWTYPGEVKGKGITMLEEIKVPSIKLVYTLTVPEATVKDSGDYECAARQATREVKEMKKVTISVHEKGHHHHHH
notes: also called EPS1105P
On to B2, for which the “Inhibition” value with human VEGF165 ligand [1] turned out to be 28.4 nM. Besides, inhibition in the experiment with human VEGF165 ligand [2] was half-maximal at 0.546 nM (IC50).

B3: PDGFRαD123-(GGGGS)3-PAS(200)-(GGGGS)3-VEGFR1D2/R2D3 (receptor)
chain: QLSLPSILPNENEKVVQLNSSFSLRCFGESEVSWQYPMSEEESSDVEIRNEENNSGLFVTVLEVSSASAAHTGLYTCYYNHTQTEENELEGRHIYIYVPDPDVAFVPLGMTDYLVIVEDDDSAIIPCRTTDPETPVTLHNSEGVVPASYDSRQGFNGTFTVGPYICEATVKGKKFQTIPFNVYALKATSELDLEMEALKTVYKSGETIVVTCAVFNNEVVDLQWTYPGEVKGKGITMLEEIKVPSIKLVYTLTVPEATVKDSGDYECAARQATREVKEMKKVTISVHEKGGGGGSGGGGSGGGGSASPAAPAPASPAAPAPSAPAASPAAPAPASPAAPAPSAPAASPAAPAPASPAAPAPSAPAASPAAPAPASPAAPAPSAPAASPAAPAPASPAAPAPSAPAASPAAPAPASPAAPAPSAPAASPAAPAPASPAAPAPSAPAASPAAPAPASPAAPAPSAPAASPAAPAPASPAAPAPSAPAASPAAPAPASPAAPAPSAPAGGGGSGGGGSGGGGSSDTGRPFVEMYSEIPEIIHMTEGRELVIPCRVTSPNITVTLKKFPLDTLIPDGKRIIWDSRKGFIISNATYKEIGLLTCEATVNGHLYKTNYLTHRQTNTIIDVVLSPSHGIELSVGEKLVLNCTARTELNVGIDFNWEYPSSKHQHKKLVNRDLKTQSGSEMKKFLSTLTIDGVTRSDQGLYTCAASSGLMTKKNSTFVRVHEKHHHHHH
notes: also called EPS1106P
For B3, the “Inhibition” value with human VEGF165 ligand [1] came out at 39.7 nM. For the same molecule, the IC50 in the experiment with human VEGF165 ligand [2] came to 0.555 nM.
